Several values for one entry are separate records, joined by “and”; a condition that tells them apart may be missing. Equal values may be shown once. Read-outs that look alike come from different tables or passages of the source.
Columns and labels:
[1] = biological target: N-terminal domain of Vibrio cholerae ParD2 as crystallised (V. cholerae); assay: crystal structure
[2] = biological target: N-terminal domain of Vibrio cholerae ParD2 as crystallised (V. cholerae); assay: crystal structure; remark: listed apart in the source
[3] = biological target: the molecule itself; assay: SAXS (SEC-SAXS)
[4] = biological target: the molecule itself; assay: […]; pH 8.0 and pH 5.6, […]
[5] = biological target: the molecule itself; assay: native MS

N-terminal domain of Vibrio cholerae ParD2 as crystallised (domain or fragment)
stoichiometry N [1]: 2 | stoichiometry N [2]: 16

B1: Vibrio cholerae ParD2 antitoxin (natural protein)
chain: MAKNTSITLGEHFDGFITSQIQSGRYGSASEVIRSALRLLENQETKLQSLRQLLIEGEQSGDADYDLDSFINELDSENIR
notes: also called VcParD2
stoichiometry N [3]: 12 | stoichiometry N [4]: 10 and 8 | stoichiometry N [5]: 2 and 4
